Substrate in the series: CCCCCCCCCCCCCCCC(=O)OCC
The series can be described thus: release of fatty acid, substrate saturation, nonlinear regression. The series is classed as biochemical, Saccharomyces cerevisiae. The note with it: CHAPS-emulsified substrate, Bistris propane, pH 7, 1 mM EDTA, 37 °C, 30 min.

B1: His6-tagged Yju3p (Saccharomyces cerevisiae S288C) (protein)
chain: MAPYPYKVQTTVPELQYENFDGAKFGYMFWPVQNGTNEVRGRVLLIHGFGEYTKIQFRLMDHLSLNGYESFTFDQRGAGVTSPGRSKGVTDEYHVFNDLEHFVEKNLSECKAKGIPLFMWGHSMGGGICLNYACQGKHKNEISGYIGSGPLIILHPHTMYNKPTQIIAPLLAKFLPRVRIDTGLDLKGITSDKAYRAFLGSDPMSVPLYGSFRQIHDFMQRGAKLYKNENNYIQKNFAKDKPVIIMHGQDDTINDPKGSEKFIQDCPSADKELKLYPGARHSIFSLETDKVFNTVFNDMKQWLDKHTTTEAKP
notes: expression construct described previously (YJU3 for the GFP fusions was cloned from BY4742 genomic DNA)
What is called Km is the substrate concentration at which the rate is half of its maximum. On to B1, for which the Km amounted to 0.78 mM.

The record behind these values is paper PMC4882453, “Monoacylglycerol Lipases Act as Evolutionarily Conserved Regulators of Non-oxidative Ethanol Metabolism” (The Journal of Biological Chemistry, 2016).
